Experimental findings from PMC11329725 (Nature Communications, 2024) are described below.

What is called Kd is a measure of binding affinity in units of concentration. Higher therefore signals weaker binding.

Series [1] concerns the target T1, His6-HDOB1 (human BRCA2 helical domain and OB fold 1, residues 2479-2807) (human, UniProt P51587 2479-2807).
T1 sequence: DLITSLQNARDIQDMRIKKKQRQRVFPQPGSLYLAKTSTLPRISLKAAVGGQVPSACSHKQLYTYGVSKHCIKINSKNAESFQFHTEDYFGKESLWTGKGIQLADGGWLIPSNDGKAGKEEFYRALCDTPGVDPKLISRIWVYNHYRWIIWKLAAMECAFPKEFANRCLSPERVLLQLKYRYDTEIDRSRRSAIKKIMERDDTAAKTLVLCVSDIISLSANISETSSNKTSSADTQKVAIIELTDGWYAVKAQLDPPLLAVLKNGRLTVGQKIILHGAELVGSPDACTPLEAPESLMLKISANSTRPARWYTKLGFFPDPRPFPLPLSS
The experiment in a line: co-purification.

In series [2] the target is BRCA2 DBD;DSS1(1-36) (partner of DBD) (mouse;human?, UniProt P97929;P60896 2378-3115;1-36, |del37-70). The experiment in a line: EMSA. Background: In EMSA bound probe runs differently from free probe, usually more slowly.
Another series has as its target T2, BRCA2 DBD (mouse, UniProt P97929 2378-3115).
T2 sequence: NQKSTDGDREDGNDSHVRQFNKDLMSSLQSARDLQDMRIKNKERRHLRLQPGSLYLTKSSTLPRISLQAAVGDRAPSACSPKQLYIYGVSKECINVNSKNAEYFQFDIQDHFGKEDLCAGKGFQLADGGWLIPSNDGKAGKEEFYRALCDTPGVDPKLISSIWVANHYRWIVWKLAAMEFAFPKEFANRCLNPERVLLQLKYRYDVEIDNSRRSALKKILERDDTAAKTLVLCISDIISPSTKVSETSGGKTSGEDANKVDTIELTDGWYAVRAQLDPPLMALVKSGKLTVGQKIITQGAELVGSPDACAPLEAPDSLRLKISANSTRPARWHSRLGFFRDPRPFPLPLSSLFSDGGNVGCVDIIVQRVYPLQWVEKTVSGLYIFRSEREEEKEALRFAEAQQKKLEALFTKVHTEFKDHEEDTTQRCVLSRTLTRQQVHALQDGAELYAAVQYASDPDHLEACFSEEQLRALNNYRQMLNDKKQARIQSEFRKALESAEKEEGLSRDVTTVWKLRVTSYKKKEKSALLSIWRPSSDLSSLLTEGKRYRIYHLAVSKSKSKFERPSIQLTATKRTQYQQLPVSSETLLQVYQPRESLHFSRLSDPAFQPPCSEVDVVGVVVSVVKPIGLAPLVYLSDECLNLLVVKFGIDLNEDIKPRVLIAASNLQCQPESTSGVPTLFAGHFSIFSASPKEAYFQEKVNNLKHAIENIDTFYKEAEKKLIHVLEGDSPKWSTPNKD
Kind of series: EMSA.

Series [3] deals with BRCA2 DBD;DSS1 R57Q (partner of DBD) (mouse;human?, UniProt P97929;P60896 2378-3115;1-70, |R57Q). The experiment in a line: EMSA.
Series [4] addresses BRCA2 DBD;DSS1(1-54) (partner of DBD) (mouse;human?, UniProt P97929;P60896 2378-3115;1-54, |del55-70). The experiment in a line: EMSA.
Series [5] deals with T3, OB23 (OB2-OB3 with tower) (human, UniProt P51587 2808-3192).
T3 sequence: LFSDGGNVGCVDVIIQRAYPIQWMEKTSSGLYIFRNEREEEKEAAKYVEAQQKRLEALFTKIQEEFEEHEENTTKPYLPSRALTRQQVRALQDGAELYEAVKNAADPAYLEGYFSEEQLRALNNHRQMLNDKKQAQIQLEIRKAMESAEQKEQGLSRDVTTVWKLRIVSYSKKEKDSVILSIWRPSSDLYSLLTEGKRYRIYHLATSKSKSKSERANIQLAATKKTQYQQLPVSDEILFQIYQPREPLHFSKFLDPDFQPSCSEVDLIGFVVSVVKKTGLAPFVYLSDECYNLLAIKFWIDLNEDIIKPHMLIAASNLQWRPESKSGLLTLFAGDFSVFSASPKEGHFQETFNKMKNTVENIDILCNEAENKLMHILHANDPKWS
The experiment in a line: EMSA.

In the case of MSEKKQPVDLGLLEEDDEFEEFPAEDWAGLDEDEDAHVWEDNWDD (domain or fragment) [GST-DSS1 1-45, co-expressed with His6-HDOB1 in E. coli], the binding result in series [1] is recorded as “binds”.

B1: GST-DSS1 1-54, co-expressed with His6-HDOB1 in E. coli (domain or fragment)
chain: MSEKKQPVDLGLLEEDDEFEEFPAEDWAGLDEDEDAHVWEDNWDDDNVEDDFSN
On to B1, for which the binding result in series [1] is listed as “binds”.

B2: Cy5 80-mer ssDNA (oligo 1) (ssDNA)
DNA: TTATATCCTTTACTTTGAATTCTATGTTTAACCTTTTACTTATTTTGTATTAGCCGGACCTTATTTCAATTATGTTCAT
Regarding B2, the binding result (in series [2]; in the series with BRCA2 DBD; in series [3]; in series [4]) was “binds” each time. Besides, the affinity in series [5], expressed as Kd, was 270 nM.

B3: Cy5 80-bp dsDNA (oligo 1/oligo 2) (dsDNA)
DNA 1: B2 DNA
DNA 2: ATGAACATAATTGAAATAAGGATCCGGCTAATACAAAATAAGTAAAAGGTTAAACATAGAATTCAAAGTAAAGGATATAA
As to B3, the binding result (in series [2]; with BRCA2 DBD; in series [3]; in series [4]) was “binds” in each case.
